In assay [1] the target is refined 1-17-2 antibody (humanized antibody with back mutation of the 5 key residues L38, L43, L45, L71 and H77) (rat | human). In words: SPR; BIACORE T200, CM5 chip; antibody captured on immobilized anti-human IgG (Fc) (human antibody capture kit); DEC-S solution passed through, 6 concentrations; regeneration 3 M magnesium chloride; KD = kd/ka. (In general: SPR reads the build-up and loss of mass on a sensor chip optically.)

Assay [2] addresses T1, DEC-205 protein (DEC-S) (Homo sapiens, UniProt O60449).
T1 construct: DEC-205 protein in solution (DEC-S) used as SPR analyte; DEC-S is probably a soluble form of DEC-205
Nature of the assay: SPR; BIACORE T200, CM5 chip; murine (rat) antibody immobilized by amine coupling; DEC-205 protein 500 to 15.625 nM, 240 sec injection at 30 µl/min, 600 sec dissociation; regeneration Glycine-HCl pH 2.5; KD = kd/ka. The settings on record: both partners purified.

Assay [3] deals with T1, DEC-205 protein (DEC-S). Nature of the assay: SPR; BIACORE T200, CM5 chip; antibody captured on immobilized anti-human IgG (Fc) (human antibody capture kit); DEC-S solution passed through, 6 concentrations; regeneration 3 M magnesium chloride; KD = kd/ka. The conditions noted are these: both partners purified.

Residue numbers refer to the chain shown, from its start.

T1 sequence (O60449 28-1722): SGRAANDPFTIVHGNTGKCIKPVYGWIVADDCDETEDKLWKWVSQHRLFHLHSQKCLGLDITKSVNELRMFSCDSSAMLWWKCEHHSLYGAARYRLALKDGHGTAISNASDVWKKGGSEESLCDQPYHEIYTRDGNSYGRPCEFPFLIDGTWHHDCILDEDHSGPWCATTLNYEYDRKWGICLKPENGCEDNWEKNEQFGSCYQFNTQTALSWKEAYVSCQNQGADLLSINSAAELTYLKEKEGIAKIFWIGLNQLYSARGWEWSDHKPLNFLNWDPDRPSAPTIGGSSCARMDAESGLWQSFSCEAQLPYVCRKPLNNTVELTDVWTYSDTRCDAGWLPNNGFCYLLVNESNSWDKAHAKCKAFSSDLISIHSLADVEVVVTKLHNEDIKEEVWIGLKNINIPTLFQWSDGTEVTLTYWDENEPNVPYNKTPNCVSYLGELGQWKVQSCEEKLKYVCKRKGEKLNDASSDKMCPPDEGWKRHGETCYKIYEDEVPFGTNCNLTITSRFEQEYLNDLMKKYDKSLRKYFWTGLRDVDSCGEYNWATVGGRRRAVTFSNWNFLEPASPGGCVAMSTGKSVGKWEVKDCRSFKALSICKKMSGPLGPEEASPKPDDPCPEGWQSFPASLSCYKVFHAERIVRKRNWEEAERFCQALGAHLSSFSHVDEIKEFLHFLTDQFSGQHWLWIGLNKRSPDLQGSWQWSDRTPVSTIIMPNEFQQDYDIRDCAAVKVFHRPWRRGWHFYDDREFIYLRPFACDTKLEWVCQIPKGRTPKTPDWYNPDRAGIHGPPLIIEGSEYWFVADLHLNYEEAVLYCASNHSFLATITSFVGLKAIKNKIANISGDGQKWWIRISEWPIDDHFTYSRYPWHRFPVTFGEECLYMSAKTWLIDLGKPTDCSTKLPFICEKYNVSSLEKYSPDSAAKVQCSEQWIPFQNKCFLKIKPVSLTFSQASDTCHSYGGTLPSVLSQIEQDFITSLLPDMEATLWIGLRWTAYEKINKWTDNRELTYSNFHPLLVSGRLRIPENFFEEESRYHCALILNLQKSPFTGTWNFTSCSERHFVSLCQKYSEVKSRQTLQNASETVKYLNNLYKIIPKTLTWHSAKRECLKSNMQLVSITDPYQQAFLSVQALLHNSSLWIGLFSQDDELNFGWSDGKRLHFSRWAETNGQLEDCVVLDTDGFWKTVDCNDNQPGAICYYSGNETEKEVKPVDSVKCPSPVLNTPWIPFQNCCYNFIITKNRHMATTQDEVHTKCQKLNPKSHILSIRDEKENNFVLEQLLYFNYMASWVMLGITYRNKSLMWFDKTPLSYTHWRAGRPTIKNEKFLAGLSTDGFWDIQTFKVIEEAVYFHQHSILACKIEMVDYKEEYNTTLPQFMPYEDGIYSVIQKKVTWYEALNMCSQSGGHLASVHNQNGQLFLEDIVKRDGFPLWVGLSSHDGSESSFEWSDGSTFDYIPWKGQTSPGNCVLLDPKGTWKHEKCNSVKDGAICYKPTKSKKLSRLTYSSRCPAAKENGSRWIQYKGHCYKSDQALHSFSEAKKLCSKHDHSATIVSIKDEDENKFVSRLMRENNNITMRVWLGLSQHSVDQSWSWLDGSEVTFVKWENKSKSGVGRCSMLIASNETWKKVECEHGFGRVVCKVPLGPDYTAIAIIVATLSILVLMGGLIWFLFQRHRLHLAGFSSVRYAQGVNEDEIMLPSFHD

As a reminder, the Kd is a measure of binding affinity in units of concentration. The koff is the rate constant with which the complex falls apart. A word on the kon: it is the rate constant with which the complex forms. Consider “DEC-205 protein (DEC-S) (from UniProt O60449 28-1722) (receptor)”, for which, in assay [1], the Kd is 16.7 nM, the koff stood at 0.000137 s⁻¹ and the kon was 8220 M⁻¹ s⁻¹.

B1: 1-17-2 rat anti-human DEC-205 monoclonal antibody (antibody, V domains shown)
VH: EVQLVESGGGLVQPGRSLKLSCAASGFTFSHYYMAWVRQAPTKGLEWVAYISTDGGTTYYRDSVKGRFTISRDNARSTLYLQVDSLRSEDTATYYCTTGQPGYNLDYFDYWGQGVMVTVSS
VL: DIQMTQSPASLSASLEEIVTITCQASQDIGYWLAWYQLKPGKSPQLLIYGATSLADGVSSRFSGSRSGTQYSLKISRLQVEDIGIYYCQQASSVPWTFGGGTKLELK
notes: VH of rat antibody 1-17-2; rat IgG1 heavy chain constant region (isotype IgG1 stated); VL of rat antibody 1-17-2; rat kappa light chain constant region (isotype kappa stated); Rat IgG1, kappa; also called Rat Ab; rat mAb; source: expressed in vitro and purified; hybridoma 1-17-2 from rats immunized with DEC-1-YB2/0 cells
In the assay with DEC-205 protein (DEC-S) [2], B1 came in with a Kd of 29.7 nM, a koff of 0.000185 s⁻¹ and a kon of 6290 M⁻¹ s⁻¹.

B2: humanized 1-17-2 antibody (30 mutations based on the chimeric antibody) (antibody, V domains shown)
VH: B1 VH with K19R, T42G, A75S, R76K, S77N, V83M, D84N, T93V, V115T, M116L
VL: DIQMTQSPSSLSASVGDRVTITCQASQDIGYWLAWYQQKPGKAPKLLIYGATSLADGVPSRFSGSGSGTDFTLTISSLQPEDFATYYCQQASSVPWTFGGGTKLEIK
notes: human heavy chain constant region contained in the MH vector; human light chain constant region contained in the MK vector; Humanized VL and VH fragments were synthesized; also called Hu Ab; humanized antibody
In the assay with DEC-205 protein (DEC-S) [3], B2 showed a Kd of 373 nM, a koff of 0.00105 s⁻¹ and a kon of 2930 M⁻¹ s⁻¹.

B3: chimeric 1-17-2 antibody (variable regions of 1-17-2 with constant regions of a human antibody) (antibody, V domains shown)
VH: B1 VH
VL: B1 VL
notes: as the VH of m1; human heavy chain constant region contained in the MH vector; as the VL of m1; human light chain constant region contained in the MK vector; Captured by anti-human IgG (Fc) in SPR, so a human IgG; Vectors MH and MK from Dr. Linqi Zhang; also called Chi Ab; chimeric antibody
In the assay with DEC-205 protein (DEC-S) [3], B3 gave a Kd of 35.4 nM, a koff of 0.000273 s⁻¹ and a kon of 8040 M⁻¹ s⁻¹.

Values taken from article PMC3836750, “A Novel Antibody Humanization Method Based on Epitopes Scanning and Molecular Dynamics Simulation” (PLoS ONE, 2013).
